# Data as given in IntAct's records for PubMed 39938803.
# B1: Retinoblastoma-associated protein (Homo sapiens), P06400 (parent)
# chain: MPPKTPRKTAATAAAAAAEPPAPPPPPPPEEDPEQDSGPEDLPLVRLEFEETEEPDFTALCQKLKIPDHVRERAWLTWEKVSSVDGVLGGYIQKKKELWGICIFIAAVDLDEMSFTFTELQKNIEISVHKFFNLLKEIDTSTKVDNAMSRLLKKYDVLFALFSKLERTCELIYLTQPSSSISTEINSALVLKVSWITFLLAKGEVLQMEDDLVISFQLMLCVLDYFIKLSPPMLLKEPYKTAVIPINGSPRTPRRGQNRSARIAKQLENDTRIIEVLCKEHECNIDEVKNVYFKNFIPFMNSLGLVTSNGLPEVENLSKRYEEIYLKNKDLDARLFLDHDKTLQTDSIDSFETQRTPRKSNLDEEVNVIPPHTPVRTVMNTIQQLMMILNSASDQPSENLISYFNNCTVNPKESILKRVKDIGYIFKEKFAKAVGQGCVEIGSQRYKLGVRLYYRVMESMLKSEEERLSIQNFSKLLNDNIFHMSLLACALEVVMATYSRSTSQNLDSGTDLSFPWILNVLNLKAFDFYKVIESFIKAEGNLTREMIKHLERCEHRIMESLAWLSDSPLFDLIKQSKDREGPTDHLESACPLNLPLQNNHTAADMYLSPVRSPKKKGSTTRVNSTANAETQATSAFQTQKPLKSTSLSLFYKKVYRLAYLRLNTLCERLLSEHPELEHIIWTLFQHTLQNEYELMRDRHLDQIMMCSMYGICKVKNIDLKFKIIVTAYKDLPHAVQETFKRVLIKEEEYDSIIVFYNSVFMQRLKTNILQYASTRPPTLSPIPHIPRSPYKFPSSPLRIPGGNIYISPLKSPYKISEGLPTPTKMTPRSRILVSIGESFGTSEKFQKINQMVCNSDRVLKRSAEGSNPPKPLKKLRFDIEGSDEADGSKHLPGESKFQQKLAEMTSTRTRMQKQKMNDSMDTSNKEEK
# What was measured:
# e2f1_human E2F1, Q01094 [1] = variants of: B1; conditions: with e2f1_human E2F1, Q01094
# e2f1_human E2F1, Q01094, sequence (Q01094 whole entry): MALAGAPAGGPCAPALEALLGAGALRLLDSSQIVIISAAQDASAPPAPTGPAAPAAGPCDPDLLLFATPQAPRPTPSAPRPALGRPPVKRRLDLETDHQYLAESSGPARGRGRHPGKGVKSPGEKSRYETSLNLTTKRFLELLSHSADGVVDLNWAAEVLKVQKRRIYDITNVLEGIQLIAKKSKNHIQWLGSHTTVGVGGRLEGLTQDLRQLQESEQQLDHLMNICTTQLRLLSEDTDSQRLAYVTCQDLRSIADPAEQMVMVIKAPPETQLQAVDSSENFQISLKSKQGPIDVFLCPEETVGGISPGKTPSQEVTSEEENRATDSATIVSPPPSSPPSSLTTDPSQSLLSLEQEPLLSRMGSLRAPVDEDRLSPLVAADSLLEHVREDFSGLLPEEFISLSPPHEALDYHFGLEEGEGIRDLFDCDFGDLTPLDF
# ve7_hpv16 E7, P03129 [2] = variants of: B1; conditions: with ve7_hpv16 E7, P03129
# ve7_hpv16 E7, P03129, sequence (P03129 whole entry): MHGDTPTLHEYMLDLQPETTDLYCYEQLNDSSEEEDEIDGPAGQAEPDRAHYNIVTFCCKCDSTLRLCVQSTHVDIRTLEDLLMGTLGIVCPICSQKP
# ve7_hpv16 E7, P03129 [3] = variants of: B1; conditions: with ve7_hpv16 E7, P03129; remark: listed apart in the source
# e2f1_human E2F1, Q01094 [4] = variants of: B1; conditions: with e2f1_human E2F1, Q01094; remark: listed apart in the source
Variant,"effect of a mutation on the interaction (e2f1_human E2F1, Q01094 [1])","effect of a mutation on the interaction (ve7_hpv16 E7, P03129 [2])","effect of a mutation on the interaction (ve7_hpv16 E7, P03129 [3])","effect of a mutation on the interaction (e2f1_human E2F1, Q01094 [4])"
T664A,decreasing interaction strength,decreasing interaction strength,,
R611S,decreasing interaction strength,with no effect,decreasing interaction strength,
H555Y,disrupting interaction strength,decreasing interaction strength,,
S648T,decreasing interaction strength,decreasing interaction strength,,
E533K,disrupting interaction strength,decreasing interaction strength,,
M695I,decreasing interaction strength,decreasing interaction strength,,disrupting interaction strength
H585Y,decreasing interaction strength,decreasing interaction strength,,
D697E,decreasing interaction strength,decreasing interaction strength,,disrupting interaction strength
R656Q,disrupting interaction strength,decreasing interaction strength,,
R656W,decreasing interaction strength,decreasing interaction strength,,
D584Y,decreasing interaction strength,decreasing interaction strength,,
E675Q,decreasing interaction strength,decreasing interaction strength,,
S474N,decreasing interaction strength,decreasing interaction strength,,
S474I,disrupting interaction strength,decreasing interaction strength,,
S474R,disrupting interaction strength,with no effect,decreasing interaction strength,
S534R,disrupting interaction strength,increasing interaction strength,decreasing interaction strength,
K530I,disrupting interaction strength,decreasing interaction strength,,
E539D,decreasing interaction strength,decreasing interaction strength,,disrupting interaction strength
P595L,decreasing interaction strength,decreasing interaction strength,,
E693A,decreasing interaction strength,decreasing interaction strength,,
H699P,decreasing interaction strength,decreasing interaction strength,,
H686Y,decreasing interaction strength,with no effect,decreasing interaction strength,
S671F,decreasing interaction strength,decreasing interaction strength,,
R556Q,decreasing interaction strength,with no effect,decreasing interaction strength,
L572I,decreasing interaction strength,increasing interaction strength,decreasing interaction strength,
E440K,increasing interaction strength,with no effect,decreasing interaction strength,decreasing interaction strength
I679F,decreasing interaction strength,decreasing interaction strength,,
S463L,decreasing interaction strength,decreasing interaction strength,,
E554K,disrupting interaction strength,decreasing interaction strength,,
T638S,with no effect,decreasing interaction strength,,decreasing interaction strength
